Data from paper PMC5913134, “The IL-33-PIN1-IRAK-M axis is critical for type 2 immunity in IL-33-induced allergic airway inflammation” (Nature Communications, 2018).

What was measured:
asthmatic patients = experiment: Segmental allergen (Derp1) challenge in asthmatic patients; assay type: in vivo, human
Text: Fig. 7 IRAK-M expression is elevated in asthmatic human samples after Derp1 segmental allergic challenge. a Representative H&E staining and PAS staining of lung biopsies before and after Derp1 segmental challenge, as well as BALF and brush cytospins before and after treatment stained with Giemsa (n = 4). b Cytospin slides of brushing, total BALF cells, BALF CD15 + and CD205 + cells samples were immune stained for IRAK-M. c Quantification of IRAK-M expression in total BALF cells, BALF CD15 + and CD205 + cells samples as in b using Velocity program. d Total BALF cells were immune stained for PIN1 and pS71PIN1 and quantified using Velocity program e. f RNA was extracted from BALF cellular contents and analyzed for the relative expression of Il6, Csf3, Cxcl2 and Ccl5 by qRT-PCR. The data were analyzed by a Student’s two-tailed t test and the values are reported as mean ± standard errors of the means (SEM). *- statistical significance (P < 0.05), **- significance (P < 0.01). Scale bar = 50 µm
For human subject study, non-smokers with a history of mild asthma with an FEV1 greater than 70% of predicted, using only intermittent beta-agonists for treatment, who were between the ages of 18 and 55 were recruited to undergo segmental allergen challenge via bronchoscopy. Participants were selected on the basis of both a positive methacholine PC20 < 8 mg/mL and a positive skin prick test to Dermatophagoides pternyssinus (DerP1). A positive intradermal that yielded a reaction at or below the concentration threshold of 0.1 AU/mL following the methods set forth in Parulekar et al., was also required, although only the DerP1 antigen was used.
After recoding baseline vitals, PO2, FEV1, PEFR, appropriate anesthetic medication was administered. Then, a fiberoptic bronchoscope with bronchoalveolar lavage (BAL) was performed by sequential instillation and removal of 5 aliquots of 50 mL normal saline in the lingula. Brushings and biopsies were taken after the BAL. The bronchoscope was then re-wedged on the contra lateral side (right middle lobe) in a readily identifiable sub-segment. A safety dose (100 × the minimum dose that caused reaction during the intradermal) of 5 mL of allergen in a prefilled syringe was instilled followed by 5 mL of air and the wedge was maintained for 5 minutes. Subject’s safety parameters were assessed after administration of the sub-threshold allergen dose. If the investigator determined the subject had well tolerated the safety dose, full dose of allergen (1000 × the minimum dose that caused reaction during the intradermal) in a pre-filled syringe was administered followed by 5 ml of air and the wedge was maintained for 5 min. Antigen lot to lot consistency was maintained between the participants intradermal skin test and segmental challenge. Participants were monitored for safety until 2 h after the procedure. After allergen challenge, if the subject developed systemic allergic reaction such as diffuse urticaria, angioedema, stridor, hypotension, syncope or any other serious adverse event, subject would be dropped from the study and only be followed up for safety reasons. Participants were not be allowed to leave for home until their condition was stable as assessed by the study physician.
Pre-bronchoscopy and bronchoscopy eligibility procedures were followed as detailed above prior to 2nd bronchoscopy. Specimens taken were BAL first, followed by brushings, and finally biopsies. These were taken where the segmental allergen challenge was placed (right middle lobe). Drug and post-procedure follow up and monitoring were followed as detailed above.

PIN1-IRAK-M interaction = experiment: Co-immunoprecipitation of PIN1 and IRAK-M; assay type: binding; settings: for PIN1 interaction (CO-IP), IRAK-M constructs: HEK293 cells, after IL-33 treatment
Experimental: Fig. 2 IL-33 induces IRAK-M phosphorylation and binding to PIN1. a GST PIN1 pulldown assay with DC2.4 cell extracts either non-treated or treated with IL-33 (100 ng/ml) or LPS (100ng/ml) for 1 h. […] The cells were washed with fresh medium and treated with 100 ng/ml IL-33 for the indicated times prior to IRAK-M immunoprecipitation. d DC2.4 cells stably expressing IRAK-M were treated with IL-33 and at the indicated time points were subjected to CO-IP using anti-PIN1 antibody and blotted for IRAK-M. e HEK293 cells were transfected with different IRAK-M constructs expressing the N’ terminal domain (aa1-220), the middle portion of the protein (aa220-440) or the C’ terminal domain (aa 440-630), and then treated with IL-33, followed by CO-IP for PIN1. f DC2.4 cells stably expressing IRAK-M were treated with IL-33 and subjected to GST or GST-PIN1 pull-down.
Cells from one 10-cm dish were homogenized in lysis buffer containing 150 mM NaCl, 1% NP-40, 0.5% deoxycholate, 0.1% SDS, 50 mM Tris-HCl (pH 7.7), 1 mM phenylmethylsulfonyl fluoride (PMSF), 1 mM dithiothreitol, and protease inhibitors. Clarified supernatants were incubated with pre incubated immobilized beads rProtein A agarose beads (RepliGen) premixed with PIN1, GFP or IRAK-M antibody or, as a control, IgG overnight at 4 °C. The beads were washed extensively with lysis buffer before elution in SDS sample buffer.

IRAK-M = IRAK-M protein stability, cycloheximide chase; assay type: cell-based; settings: for IRAK-M half-life: cycloheximide chase
Experimental: Fig. 4 PIN1 increases IRAK-M protein stabilization. a After IRAK-M and GFP were coexpressed in WT and PIN1 KO MEFs for 24 h, cells were split equally into 5 dishes. 24 h later cells were treated with cyclohexamide and harvested to monitor IRAK-M, GFP and PIN1 levels at the time points indicated. b Quantification of 3 independent experiments as in a. c WT MEFs stably expressing the TET on inducible short hairpin for PIN1 (shPin1) or pLKO as a control, were expressed with IRAK-M, followed by induction with Doxycycline for 18 h prior to the cyclohexamide chase. d Quantification of 3 independent experiments as in c. e BMDCs from WT or PIN1 KO mice were treated with IL-33 and the levels of IRAK-M were monitored at different time points after induction. f Quantification of 3 independent experiments as in e. g PIN1 KO MEFs were expressed with IRAK-M alone or in combination with PIN1 or its mutants W34A or K63A for 24 h, followed by the cyclohexamide chase to assay IRAK-M stability. h Quantification of 3 independent experiments as in g. i IRAK-M or its different mutants; S110A, S110E and P111A were expressed in WT MEFs, followed by the cyclohexamide chase to assay IRAK-M stability. j Quantification of 3 independent experiments as in i. k IRAK-M or its different mutants were stably expressed in DC2.4 cells, followed by the cyclohexamide chase to monitor IRAK-M stability. l Quantification of 3 independent experiments as in k. The data were analyzed by a Student’s two-tailed t test and the values are reported as mean ± standard errors of the means (SEM). *- statistical significance (P < 0.05), **- significance (P < 0.01)

B1: Derp1: segmental allergen of Dermatophagoides pteronyssinus (protein, UniProt P08176 99-320, looked up)
Peptidase 1: TNACSINGNAPAEIDLRQMRTVTPIRMQGGCGSCWAFSGVAATESAYLAYRNQSLDLAEQELVDCASQHGCHGDTIPRGIEYIQHNGVVQESYYRYVAREQSCRRPNAQRFGISNYCQIYPPNVNKIREALAQTHSAIAVIIGIKDLDAFRHYDGRTIIQRDNGYQPNYHAVNIVGYSNAQGVDYWIVRNSWDTNWGDNGYGYFAANIDLMMIEEYPYVVIL
- immunological reaction (granulocyte infiltration, tissue remodeling) (asthmatic patients; asthmatic patients, segmental Derp1, n = 4): massive immunological reaction
- IRAK-M expression in bronchial epithelial cells (asthmatic patients; biopsies, before and after Derp1 challenge): elevated
- IRAK-M protein expression in lung brush samples (asthmatic patients; brush cytospins, after Derp1 challenge): greatly elevated
- IRAK-M expression in CD15+ and CD205+ BALF cells (asthmatic patients; sorted eosinophils (CD15+) and dendritic/monocytes (CD205+), after Derp1): highly elevated
- PIN1 protein expression (asthmatic patients; total BALF cytospins, Derp1): did not seem to change
- pS71 PIN1 phosphorylation (asthmatic patients; total BALF cytospins, Derp1): decrease in pS71 phosphorylation
- IRAK-M expression in total BALF cells (asthmatic patients; total BALF, after Derp1 challenge): highly elevated

B2: IRAK-M N-terminal domain: N-terminal (aa 1-220) of IRAK-M (protein, UniProt Q8K4B2 1-220, looked up, fragment)
chain: MAGRCGARGALSPQLLLFDLPPALLGELCGILDSCDGPLGWRGLAERLSNSWLDVRHIEKYVNQGKSGTRELLWSWAQKNKTIGDLLEVLQDMGHQRAIHLIINYGVSWTPSVQTHHELPFPSFPPEVKHACRENDPGPLEPANVTVDNVLVPEHNEKGTLQKTPISFQSILEGTKHFHKDFLIGEGEIFEVYRVDIRNQAYAVKLFKQEKKMQLKKHWK
- PIN1 interaction (CO-IP), IRAK-M constructs (PIN1-IRAK-M interaction): mainly evident

B3: IRAK-M: Interleukin receptor associated kinase M (protein, UniProt Q8K4B2 1-609, looked up)
Interleukin-1 …: MAGRCGARGALSPQLLLFDLPPALLGELCGILDSCDGPLGWRGLAERLSNSWLDVRHIEKYVNQGKSGTRELLWSWAQKNKTIGDLLEVLQDMGHQRAIHLIINYGVSWTPSVQTHHELPFPSFPPEVKHACRENDPGPLEPANVTVDNVLVPEHNEKGTLQKTPISFQSILEGTKHFHKDFLIGEGEIFEVYRVDIRNQAYAVKLFKQEKKMQLKKHWKRFLSELEVLLLFRHPHILELAAYFTETEKLCLVYPYMSNGTLFDRLQCTNGTTPLSWHVRISVLIGIAKAIQYLHNTQPCAVICGNVSSANILLDDQLQPKLTDFAAAHFRPNLEQQSSTINMTGGGRKHLWYMPEEYIRQGRLSVKTDVYSFGIVIMEVLTGCKVVLDDPKHVQLRDLLMELMEKRGLDSCLSFLDRKIPPCPRNFSAKLFSLAGRCVATKAKLRPTMDEVLSSLESTQPSLYFAEDPPTSLKSFRCPSPLFLDNVPSIPVEDDENQNNHSVPPKEVLGTDRVTQKTPFECSQSEVTFLGLDRNRGNRGSEADCNVPSSSHEECWSPELVAPSQDLSPTVISLGSSWEVPGHSYGSKPMEKRCSSGLFCSEHEQSKKQ
- PIN1 interaction (CO-IP), IRAK-M mutants (PIN1-IRAK-M interaction; stably expressing DC2.4 cells, with/without IL-33): evident only after IL-33 stimulation
- IRAK-M half-life (IRAK-M; PIN1 KO MEFs): < 3 h
- IRAK-M half-life (IRAK-M; WT MEFs): ~ 6 h
- reduction of IRAK-M half-life (IRAK-M; inducible PIN1 knock down (KD), MEFs): more than 50%

B4: S110A: IRAK-M mutant, Ser110 substituted to Ala (protein)
chain: MAGNCGARGALSAHTLLFDLPPALLGELCAVLDSCDGALGWRGLAERLSSSWLDVRHIEKYVDQGKSGTRELLWSWAQKNKTIGDLLQVLQEMGHRRAIHLITNYGAVLAPSEKSYQEGGFPNILFKETANVTVDNVLIPEHNEKGILLKSSISFQNIIEGTRNFHKDFLIGEGEIFEVYRVEIQNLTYAVKLFKQEKKMQCKKHWKRFLSELEVLLLFHHPNILELAAYFTETEKFCLIYPYMRNGTLFDRLQCVGDTAPLPWHIRIGILIGISKAIHYLHNVQPCSVICGSISSANILLDDQFQPKLTDFAMAHFRSHLEHQSCTINMTSSSSKHLWYMPEEYIRQGKLSIKTDVYSFGIVIMEVLTGCRVVLDDPKHIQLRDLLRELMEKRGLDSCLSFLDKKVPPCPRNFSAKLFCLAGRCAATRAKLRPSMDEVLNTLESTQASLYFAEDPPTSLKSFRCPSPLFLENVPSIPVEDDESQNNNLLPSDEGLRIDRMTQKTPFECSQSEVMFLSLDKKPESKRNEEACNMPSSSCEESWFPKYIVPSQDLRPYKVNIDPSSEAPGHSCRSRPVESSCSSKFSWDEYEQYKKE
- PIN1 interaction (CO-IP), IRAK-M constructs (PIN1-IRAK-M interaction): abolished the PIN1-IRAK-M interaction
- decrease of IRAK-M protein stability (IRAK-M; mutant IRAK-M, WT MEFs, reproduced in DC2.4 cells): ~ 50%

B5: PIN1: peptidyl-prolyl cis-trans isomerase PIN1 (protein, UniProt Q9QUR7 1-165, looked up)
Peptidyl-prolyl cis-trans …: MADEEKLPPGWEKRMSRSSGRVYYFNHITNASQWERPSGGSTVGGSSKNGQGEPAKVRCSHLLVKHSQSRRPSSWRQEKITRSKEEALELINGYIQKIKSGEEDFESLASQFSDCSSAKARGDLGPFSRGQMQKPFEDASFALRTGEMSGPVFTDSGIHIILRTE
- increase in IRAK-M half-life (IRAK-M; PIN1-deficient MEFs (text PIN1 KD, Fig. 4g legend PIN1 KO) co-expressing IRAK-M with PIN1 or mutant): more than 50%
